Data taken from patent US20220162331A1 (CHENGDU CONMED BIOSCIENCES, published 2022).

T1: recombinant human CD73 extracellular domain (Trp27-Lys546) with C-terminal 6-histidine tag (human, UniProt P21589 27-547)
T1 construct: also called hCD73; hCD73-cHis
T1 sequence: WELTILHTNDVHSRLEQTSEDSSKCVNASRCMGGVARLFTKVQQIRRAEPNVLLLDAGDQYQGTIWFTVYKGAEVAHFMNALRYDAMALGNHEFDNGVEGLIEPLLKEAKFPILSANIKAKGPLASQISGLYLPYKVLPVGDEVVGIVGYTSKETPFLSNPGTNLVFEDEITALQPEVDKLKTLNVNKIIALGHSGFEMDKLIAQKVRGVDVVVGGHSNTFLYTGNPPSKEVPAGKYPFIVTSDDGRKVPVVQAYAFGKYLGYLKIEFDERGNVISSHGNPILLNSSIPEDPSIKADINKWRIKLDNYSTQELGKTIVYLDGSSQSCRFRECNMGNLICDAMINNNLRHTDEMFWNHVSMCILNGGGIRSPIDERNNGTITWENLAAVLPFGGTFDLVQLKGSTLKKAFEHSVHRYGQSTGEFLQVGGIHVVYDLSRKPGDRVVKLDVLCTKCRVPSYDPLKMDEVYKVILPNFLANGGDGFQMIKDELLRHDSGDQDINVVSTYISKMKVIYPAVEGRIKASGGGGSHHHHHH

T2: recombinant cynomolgus monkey CD73 extracellular domain (Trp27-Lys546) (cynomolgus monkey, UniProt P21589 27-547 (human entry))
T2 construct: also called cynoCD73; recombinant monkey CD73 extracellular domain
T2 chain: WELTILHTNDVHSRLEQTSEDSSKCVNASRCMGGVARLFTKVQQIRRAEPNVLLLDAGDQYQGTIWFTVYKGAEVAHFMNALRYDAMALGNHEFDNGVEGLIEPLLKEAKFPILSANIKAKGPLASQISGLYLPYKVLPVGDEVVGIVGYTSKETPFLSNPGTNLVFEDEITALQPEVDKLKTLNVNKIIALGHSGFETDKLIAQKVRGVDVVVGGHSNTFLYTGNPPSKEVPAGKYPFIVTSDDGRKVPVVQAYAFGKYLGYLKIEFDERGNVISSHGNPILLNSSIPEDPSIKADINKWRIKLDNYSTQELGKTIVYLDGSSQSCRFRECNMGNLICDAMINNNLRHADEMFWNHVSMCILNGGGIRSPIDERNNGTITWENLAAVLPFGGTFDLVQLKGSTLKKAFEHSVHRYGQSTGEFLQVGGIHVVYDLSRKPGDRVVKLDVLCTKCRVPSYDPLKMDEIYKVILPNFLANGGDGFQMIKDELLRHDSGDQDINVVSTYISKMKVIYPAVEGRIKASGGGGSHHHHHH

T3: human CD73 on Calu6 cells (human, UniProt P21589 27-549)
T3 sequence (looked up): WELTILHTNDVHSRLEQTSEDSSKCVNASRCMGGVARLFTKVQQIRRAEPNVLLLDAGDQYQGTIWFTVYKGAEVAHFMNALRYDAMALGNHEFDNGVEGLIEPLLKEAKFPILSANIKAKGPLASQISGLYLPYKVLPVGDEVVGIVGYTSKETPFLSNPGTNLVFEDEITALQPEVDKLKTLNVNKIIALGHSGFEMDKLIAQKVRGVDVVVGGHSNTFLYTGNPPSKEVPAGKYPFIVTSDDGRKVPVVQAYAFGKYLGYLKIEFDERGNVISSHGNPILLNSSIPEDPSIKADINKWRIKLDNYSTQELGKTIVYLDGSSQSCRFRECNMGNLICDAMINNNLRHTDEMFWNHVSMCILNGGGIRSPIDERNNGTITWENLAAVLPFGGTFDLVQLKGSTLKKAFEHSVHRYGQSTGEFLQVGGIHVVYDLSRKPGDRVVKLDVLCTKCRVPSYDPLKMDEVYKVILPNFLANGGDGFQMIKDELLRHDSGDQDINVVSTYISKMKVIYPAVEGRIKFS

T4: human full-length CD73 on hCD73-CHO-1C11 cells (human, UniProt P21589 27-549)
T4 construct: it may be a nucleotide entry; also called CHO-CD73-1C11
T4 sequence: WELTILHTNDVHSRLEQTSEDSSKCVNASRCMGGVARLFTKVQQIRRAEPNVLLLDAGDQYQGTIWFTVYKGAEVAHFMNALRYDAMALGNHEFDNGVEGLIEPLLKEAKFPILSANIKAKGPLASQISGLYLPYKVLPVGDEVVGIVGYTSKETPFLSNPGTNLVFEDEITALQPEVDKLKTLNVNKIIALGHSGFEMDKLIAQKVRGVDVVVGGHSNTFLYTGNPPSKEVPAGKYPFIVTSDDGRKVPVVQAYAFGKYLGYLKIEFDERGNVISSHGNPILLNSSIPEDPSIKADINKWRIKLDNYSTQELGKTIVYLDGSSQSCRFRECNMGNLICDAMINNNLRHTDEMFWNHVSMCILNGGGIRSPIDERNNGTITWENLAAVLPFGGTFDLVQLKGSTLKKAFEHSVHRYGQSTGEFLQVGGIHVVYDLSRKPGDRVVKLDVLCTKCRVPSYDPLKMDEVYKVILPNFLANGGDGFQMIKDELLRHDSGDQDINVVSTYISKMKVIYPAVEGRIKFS


How the values were obtained:
[1] = target: T1, recombinant human CD73 extracellular …; experiment: ELISA, plate coated with recombinant CD73 extracellular domain
[2] = target: T2, recombinant cynomolgus monkey CD73 …; experiment: as above
[3] = target: T3, human CD73 on Calu6 cells; experiment: cell-based or functional assay
[4] = target: T4, human full-length CD73 on …; experiment: FACS on CHO-CD73-1C11 cells
[5] = target: T3, human CD73 on Calu6 cells; experiment: FACS on Calu6 cells
[6] = target: T3, human CD73 on Calu6 cells; experiment: cell-based or functional assay; remark: listed apart in the source
[7] = target: T1, recombinant human CD73 extracellular …; experiment: SPR, Biacore T200, antibody captured on Protein A chip, hCD73 ECD as analyte, 1:1 Langmuir
Procedure: The affinity of CD73 antibody was determined by plasma surface resonance on Biacore T200. At room temperature, the antibody concentration was diluted to 0.5 μg/mL with 1×HBS-EP buffer (prepared from HBS-EP+Buffer 10×, GE, BR1008-26), the Protein A chip (GE, 29-1275-56) was coated with a flow rate of 10 μL per minute, the capture time was about 40 seconds, and the coated RU value was controlled to be about 100 RU. The recombinant human CD73 extracellular domain protein was diluted to 3 μg/mL with 1×HBS-EP buffer, diluted to two-fold gradient, a total of 6 concentrations, 200 μL of each concentration gradient. The 1×HBS-EP buffer was used as a control, the flow rate was 30 μl/min, the binding time was 120 seconds, and the dissociation time was 600 seconds. The affinity was fitted using Langmuir 1:1 Kinetic theoretical model and analyzed by Biacore T200 Evaluation Software (Table 3).

| Binder | EC50 [1] [nM] | EC50 [2] [nM] | Inhibition of CD73 enzyme activity IC50(nM), Calu6 [3] [nM] | EC50 [4] [nM] | EC50 [5] [nM] | CD73 endocytosis ratio %, 30 minutes [6] [%] | CD73 endocytosis ratio %, 60 minutes [6] [%] | CD73 endocytosis ratio %, 120 minutes [6] [%] | CD73 endocytosis ratio %, 240 minutes [6] [%] | CD73 endocytosis ratio %, 480 minutes [6] [%] | Kd [7] [nM] | koff [7] [s⁻¹] | kon [7] [M⁻¹ s⁻¹] |
| --- | --- | --- | --- | --- | --- | --- | --- | --- | --- | --- | --- | --- | --- |
| CD73 antibody 2D4 (antibody, V domains shown, also called Clone 2D4) VH: EVKLVESGGGLVQPGGSLKLSCATSGFTFSDYYMYWVRQTPEKRLEWVAYISNVGGSTYYPDTVKGRFTISRDNAKNTLYLQMSRLKSEDTAIYYCARGDGYYGYYFDVWGAGTTVTVSS VL: QIVLTQSPAIMSASPGEKVTMTCSASSSVSYMHWYQQKSGTSPKRWIYDTSKLASGVPARFSGSGSGTSYSLTISSMEAEDAATYYCQQWSSNPYTFGGGTKLEIK | 0.02 | 0.02 | 0.47 | 1.76 | 1.25 | 19.1 | 28.1 | 29.7 | 39.5 | 36.9 |  |  |  |
| CD73 antibody 2H2 (antibody, V domains shown, also called Clone 2H2) VH: EVKLVESGGGLVQPGGSLKLSCATSGFTFSDYYMYWVRQTPEKRLEWVAYISNVGGSTYYPDTVKGRFTISRDNAKNTLYLQMSRLKSEDTAMYYCARGDGYYGYYFDVWGAGTTVTVSS VL: ENVLTQSPAIMSASPGEKVTMTCSASSSVSYMHWYQQKSGTSPKRWIYDTSKLASGVPTRFSGSGSGTSFSLTISSMEAEDAATYYCQQWSSNPYTFGGGTKLEIK | 0.02 | 0.02 | 4.03 | 1.53 | 0.93 | 22.4 | 27.4 | 45.8 | 33.4 | 49.3 |  |  |  |
| humanized anti-CD73 antibody 22C12 VH-v10/VL-v2 (antibody, V domains shown, Human IgG1 CH1-CH3 constant region and kappa constant region; also called hu22C12 VHv10 (printed hu22C12 Vilv10) + hu22C12 Vkv2) VH: QVQLVQSGAEVKKPGASVKVSCKASGYTFTGYWIQWVRQAPGQGLEWMGAIYPGDEDTRYTQKFQGRVTMTADTSISTAYMELSRLRSDDTAVYYCARGNWDDWDFDVWGQGTTVTVSS VL: DIQMTQSPSSLSASVGDRVTITCRASQDISNYLNWYQQKPGKAPKLLIHYTSRLHSGVPSRFSGSGSGTDYTLTISSLQPEDFATYYCQQGDTLPWTFGQGTKVEIK |  |  |  |  |  |  |  |  |  |  | 0.134 | 0.000225 | 1.68e+06 |
| humanized anti-CD73 antibody 22C12 VH-v9/Vk-v2 (antibody, V domains shown, Human IgG1 CH1-CH3 constant region and kappa constant region; also called hu22C12 VHv9 (printed hu22C12V11v9) + hu22C12 Vkv2) VH: QVQLVQSGAEVKKPGASVKVSCKASGYTFTGYWIQWVRQAPGQGLEWMGAIYPGDSDTRYTQKFQGRVTMTADTSISTAYMELSRLRSDDTAVYYCARGNWDDWDFDVWGQGTTVTVSS VL: DIQMTQSPSSLSASVGDRVTITCRASQDISNYLNWYQQKPGKAPKLLIHYTSRLHSGVPSRFSGSGSGTDYTLTISSLQPEDFATYYCQQGDTLPWTFGQGTKVEIK |  |  |  |  |  |  |  |  |  |  | 0.135 | 0.000165 | 1.22e+06 |
| humanized anti-CD73 antibody 22C12 VH-v10/VL-v3 (antibody, V domains shown, Human IgG1 CH1-CH3 constant region and kappa constant region; also called hu22C12 VHv10 (printed hu22C12 Vilv10) + hu22C12 Vkv3) VH: QVQLVQSGAEVKKPGASVKVSCKASGYTFTGYWIQWVRQAPGQGLEWMGAIYPGDEDTRYTQKFQGRVTMTADTSISTAYMELSRLRSDDTAVYYCARGNWDDWDFDVWGQGTTVTVSS VL: DIQMTQSPSSLSASVGDRVTITCRASQDISNYLNWYQQKPGKAPKLLIHYTSRLHSGVPSRFSGSGSGTDFTLTISSLQPEDFATYYCQQGDTLPWTFGQGTKVEIK |  |  |  |  |  |  |  |  |  |  | 0.0956 | 0.000179 | 1.87e+06 |
| humanized anti-CD73 antibody 6G8 VH-v1/VK-v1 (antibody, V domains shown, Human IgG1 CH1-CH3 constant region and kappa constant region; also called hu6G8 VHv1 + hu6G8 Vkv1) VH: QVTLRESGPALVKPTQTLTLTCTFSGFSLSTSGMGVGWIRQPPGKALEWLAHIWWDDDKYYNPSLKSRLTISKDTSKNQVVLTMTNMDPVDTATYYCARRERWAWFAYWGQGTLVTVSS VL: DIQMTQSPSSLSASVGDRVTITCRASQNVFTNVAWYQQKPGKAPKVLIYSASYRYSGVPSRFSGSGSGTDFTLTISSLQPEDFATYFCQQYNSYPTFGQGTKLEIK |  |  |  |  |  |  |  |  |  |  | 0.272 | 0.000106 | 389000 |
| CD73 antibody 14E4 (antibody, V domains shown, Mouse variable regions on human IgG heavy chain constant region and human kappa constant region (chimeric IgG); also called Clone 14E4) VH: QVQLQQSGPELVKPGASVKISCKASGYIFTNYYIHWVKQRPGQGLEWIGWIFPGSGNTKYSEKFKDKATLTADTSSSTAYMQLSSLTSEDSAVYFCAGLSDWGQGTTLTVSS VL: DIQMTQSPSSLSASLGERVSLTCRASQDIGDRLIWLQQEPAGTFKRLIYATSSLDSGVPKRFSGSRSGSDYSLTISSLESEDFVDYYCLQYASSPWTFGGGTKLEIK | 0.06 | 0.18 | 4.57 | 6.55 | 2.56 |  | 19.3 | 2.6 | 12.7 | 2.6 |  |  |  |
| CD73 antibody 6A8 (antibody, V domains shown, Mouse variable regions on human IgG heavy chain constant region and human kappa constant region (chimeric IgG); also called Clone 6A8) VH: QVQFQQSGAELARPGTSVKLSCKASGYIFTSYWIQWIKQRPGQGLEWIGAIYPGDGDTRYTQKFKGKATLTAEKSSSTAYMQLRSLASEDSAVYYCAGFASWGQGTLLTVSA VL: DIQMTQSPSSLSASLGERVNLTCRASQDIGDSLIWLQQEPDGTIKRLIYATSSLDSGVPKRFSGSRSGSDYSLTISSLESEDLVDYYCLQYASSPFTFGGGTKLEIK | 0.08 | 0.09 | 6.63 | 11 | 3.51 |  | 16.2 |  |  |  |  |  |  |
